Common to all, as to type: cell-based
One experiment addresses T1, huKv1.3 (Homo sapiens, UniProt P22001).
T1 construct: host or cells: CHO
The experiment in a line: QPatch automated whole-cell patch-clamp, CHO cells stably expressing huKv1.3 (Example 8). Particulars: Kv1.3 channels, IgG KnotBody, Table 11A. How it is done:
Knottin Kv 1.3 and ASIC1a blockers expressed in the KnotBody format (see examples 6 and 7) were tested for their ability to inhibit the function of the ion channel targets. The effect of these KnotBodies on cells expressing the human Kv 1.3 (huKv1.3) or human ASIC1a channels was assessed using QPatch automated whole-cell patch-clamp electrophysiology (Sophion).
For the testing of Kv1.3, CHO cells stably expressing huKv1.3 (Charles River Lab) were analysed using the QPatch electrophysiology assay in the presence or absence of the KnotBody fusions or the antibody isotypes (negative) controls. Internal and external physiological solutions were freshly prepared prior to the assay. The extracellular solution contained 145 mM NaCl, 4 mM KCl, 2 mM CaCl2, 1 mM MgCl2, 10 mM HEPES and 10 mM glucose; the pH was adjusted to 7.4 with NaOH; the osmolarity was ~ 305 mOsm/L. The intracellular solution contained: KF (120 mM), KCl (20 mM), HEPES (10 mM) and EGTA (10 mM); the pH was adjusted to 7.2 with KOH; osmolarity was ~ 320 mOsm/L.
A series of depolarising voltage (channel activating) pulses were used to monitor the channel currents upon adding control (extracellular solution) to define a control baseline of current activity. To these measured control currents ascending concentrations of KnotBodies or parental antibody isotypes (control molecules) were applied to the external bathing solution (2.2 µM - 0.5 nM, diluted in the extracellular solution). KnotBodies KB_A12 and KB_A07 (EETI-II fusions) were used as isotype controls for the testing. From a holding voltage of -80 mV a depolarising, activating voltage pulses of +30 or +80 mV were applied for 300 ms, every 5 or 10 seconds. The elicited, maximum outward current values measured during the activating step for each solution exchange period were averaged (n = 3 - 8 for each concentration applied) and plotted as concentration-response curves. KB_A07_ShK, KB_A12_ShK and KB_A07_Kaliotoxin (KTX) fusion proteins all inhibited the huKv1.3 currents in a concentration dependent manner with IC50S of approximately 20 nM, 40 nM and 900 nM respectively.
(In general: The patch-clamp technique gives a direct electrical read-out from membranes.)

In another experiment the target is T2, human Kv1.3 (huKv1.3) (Homo sapiens, UniProt P22001).
T2 construct: host or cells: CHO
T2 sequence (P22001 whole entry): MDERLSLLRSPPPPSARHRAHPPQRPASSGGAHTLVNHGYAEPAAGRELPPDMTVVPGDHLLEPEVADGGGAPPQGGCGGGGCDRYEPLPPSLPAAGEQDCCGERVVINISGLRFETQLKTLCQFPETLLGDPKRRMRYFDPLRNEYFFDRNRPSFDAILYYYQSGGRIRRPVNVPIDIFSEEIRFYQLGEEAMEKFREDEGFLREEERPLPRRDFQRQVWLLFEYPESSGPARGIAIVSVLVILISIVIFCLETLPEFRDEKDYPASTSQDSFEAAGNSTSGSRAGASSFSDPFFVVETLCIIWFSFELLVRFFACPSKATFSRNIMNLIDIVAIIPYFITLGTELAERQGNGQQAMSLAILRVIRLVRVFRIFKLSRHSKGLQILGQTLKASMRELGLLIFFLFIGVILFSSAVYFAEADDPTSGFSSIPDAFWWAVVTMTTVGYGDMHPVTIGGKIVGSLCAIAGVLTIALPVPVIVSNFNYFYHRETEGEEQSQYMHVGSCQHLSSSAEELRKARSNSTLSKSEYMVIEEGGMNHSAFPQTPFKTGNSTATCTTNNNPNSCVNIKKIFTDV
Nature of the experiment: QPatch automated patch-clamp, CHO cells stably expressing human Kv1.3 (Examples 19-21). How it is done: The effect of these KnotBodies on cells expressing human Kv1.3 (huKv1.3) channel was assessed using the QPatch automated patch-clamp platform (Sophion, Ballerup, Denmark). For the testing of Kv1.3 ion channel currents, CHO cells stably expressing human Kv1.3 (GenBank accession number NM_002232.2; cell line catalogue number CT6133, Charles River Discovery, Cleveland, USA) were subjected to a QPatch electrophysiology assay in the presence or absence of the KnotBody fusions or the antibody isotypes (negative controls). Internal and external physiological solutions were freshly prepared prior to the assay. The extracellular solution contained 145 mM NaCl, 4 mM KC1, 2 mM CaC12, 1 mM MgC12, 10 mM HEPES and 10 mM glucose; the pH was adjusted to 7.4 with NaOH; the osmolarity was ~ 305 mOsm/L. The intracellular solution contained: KF (120 mM), KC1 (20 mM), HEPES (10 mM) EGTA (10 mM); the pH was adjusted to 7.2 with KOH; osmolarity was ~ 300 mOsm/L.
(§1) A series of depolarising voltage (channel activating) pulses were used to monitor the channel currents upon adding control (extracellular solution) to define a control baseline of current activity. To these measured control currents four, ascending concentrations of KnotBodies (including KB_A12_ShK and KB_A12_KTX as previously described in Example 8) or parental antibody isotypes (control molecules) were applied to the external bathing solution. KnotBodies KB_A12 and KB_A07 (EETI-II fusions) were used as isotype controls for the testing. From a holding voltage of -80 mV a depolarising, activating voltage pulses of +30 mV were applied for 300 ms, every 10 seconds. The elicited, maximum outward current values measured during the activating step for each solution exchange period, averaged (n = 3 - 6 for each concentration applied) and plotted as concentration-response curves (see FIG. 32). From these concentration-response curves IC50 values were calculated.
(§2) For the testing of Kv1.1 and Kv1.3, CHO-S expressing huKv1.1 (described above) or CHO cells stably expressing huKv1.3 (Charles River Lab) were analysed using the QPatch electrophysiology assay in the presence or absence of the KnotBody fusions. Internal and external physiological solutions were freshly prepared prior to the assay. The extracellular solution contained 145 mM NaCl, 4 mM KC1, 2 mM CaC12, 1 mM MgC12, 10 mM HEPES and 10 mM glucose; the pH was adjusted to 7.4 with NaOH; the osmolarity was ~ 305 mOsm/L. The intracellular solution contained: KF (120 mM), KC1 (20 mM), HEPES (10 mM) EGTA (10 mM); the pH was adjusted to 7.2 with KOH; osmolarity was ~ 300 mOsm/L.
as §1, with “(including previously described” for “(including”, “KB_A12_KTX” for “KB_A12_KTX as previously”, “[…]” for “+30 mV”, “33).” for “32).”, “calculated (see Table E20).” for “calculated.”
(§3) For the testing of Kv1.1 and Kv1.3, CHO-S expressing huKv1.1 (see Example 20 and below) or CHO cells stably expressing huKv1.3 (Charles River Lab) were analysed using the QPatch electrophysiology assay in the presence or absence of the KnotBody fusions - see details in Examples 19 and 20.

A further experiment addresses T3, human Kv1.1 (huKv1.1) (Homo sapiens, UniProt Q09470).
T3 construct: expressed in transfected cells; host or cells: Freestyle CHO-S
The experiment in a line: QPatch automated patch-clamp, CHO-S cells expressing huKv1.1 (Examples 20-21). How it is done: 1. The effect of these KnotBodies on cells expressing human Kv1.1 (huKv1.1) and Kv1.3 (huKv1.3) channels was assessed using QPatch automated patch-clamp platform (Sophion).
To generate huKv1.1 expressing cells, Freestyle CHO-S cells (Cat. no. R80007, Life Technologies, California, USA) were transfected with pINT50-Tr plasmid encoding huKv1.1 gene using the MaxCyte STX (MaxCyte) transfection system. In pINT50-Tr plasmid, huKv1.1 gene is under the control of a CMV promoter. 64 µg of the plasmid DNA were added to 400 µl of Freestyle CHO-S cells (at a density of 1 × 10^8 cells/ml) in Electroporation Buffer (GE Healthcare Life Sciences, Cat. no. EPB1) in an OC-400 processing assembly (MaxCyte). Following electroporation, the cells were transferred to a well of a 24-well plate containing 200 U/ml DNAse I (Sigma, D4263) and incubated for 20 minutes at 37° C. and 5% CO2. The cells were then transferred into a 100 ml shaker flask containing 20 ml of CD Opticho Media (Thermo Fisher Scientific, Cat.No 12681-011,) supplemented with 8 mM L-Glut (Thermo Fisher Scientific, cat. no. 25030-024). The cells were incubated for 24 hours at 37° C. and 5% CO2 (and 75% humidity and shaking at 800 rpm) prior to testing using automated patch clamp electrophysiology.
as §2
as §1, with “(including previously described” for “(including”, “KB_A12_KTX” for “KB_A12_KTX as previously”, “[…]” for “+30 mV”, “33).” for “32).”, “calculated (see Table E20).” for “calculated.”
as §3
In addition to the CHO-S transiently expressing huKv1.1 (described in Example 20), CHO-S cells with poly-clonal stable expression of huKv1.1 cells were also made and used in the QPatch electrophysiology assay. To generate the polyclonal stable huKv1.1 cells from the transiently expressing cells described in Example 20, after a 24 hour incubation period the selection antibiotic Puromycin (catalogue no. A1 1138-03, Life Technologies, California, USA) was added to culture media. Then, for the first 14 days puromycin was at 10 µg ml-1 media; at days 15-28 puromycin was at 20 µg ml-1 media. Cell cultures were seeded at 2.5 x 10^5 cells ml^-1 into fresh culture media and puromycin twice per week through this selection growth period. […]

The mark [1] stands for this setting: Kv1.1 IC50 over Kv1.3 IC50, Table E20.
Where [2] appears, read: four-point curves of FIG. 33, Table E20, read-out: Kv1.3 IC50.
[3] abbreviates: huKv1.3, four-point curves of FIG. 32, Table E19, read-out: IC50.
[4] abbreviates: four-point curves of FIG. 33, Table E20.

Where two headings read alike, the source gives them in different places.

T3 sequence (Q09470 whole entry): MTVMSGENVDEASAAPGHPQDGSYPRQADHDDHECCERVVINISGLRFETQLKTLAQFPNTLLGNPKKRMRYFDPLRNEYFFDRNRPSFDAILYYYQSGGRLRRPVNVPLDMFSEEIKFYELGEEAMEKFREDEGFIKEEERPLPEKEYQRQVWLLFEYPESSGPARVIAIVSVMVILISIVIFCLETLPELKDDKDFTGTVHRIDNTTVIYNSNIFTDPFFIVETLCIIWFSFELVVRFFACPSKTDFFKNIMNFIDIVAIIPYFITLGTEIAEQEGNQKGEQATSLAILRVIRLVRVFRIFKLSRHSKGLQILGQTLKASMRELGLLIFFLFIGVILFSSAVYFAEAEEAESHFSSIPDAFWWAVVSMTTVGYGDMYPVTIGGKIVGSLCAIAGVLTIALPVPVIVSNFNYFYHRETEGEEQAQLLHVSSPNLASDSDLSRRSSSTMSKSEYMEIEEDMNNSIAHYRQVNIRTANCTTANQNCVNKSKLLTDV
T1 sequence (P22001 whole entry): as the sequence (P22001 whole entry) above

B1: KB_A12_KTX: kaliotoxin in VL CDR2 of KB_A12, IgG1 (antibody)
VH: EVQLVESGGGLVRPGGSLRLSCAASGFTFSSYAMSWVRQAPGKGLEWVSAISGSGGSTYYADSVKGRFTISRDNTKNSLYLQMTSLRADDTAFYYCVKDFGPGYGTGWFDYWGPGTLVTVSS
VL: QSVLTQPPSVSEAPRQRVTITCSGSSSNIGNNAVNWYQQLPGKAPKLLIYAAGRGVEINVKCSGSPQCLKPCKDAGMRFGKCMNRKCHCTPKANSGVSDRFSAAKSGTSASLAINGLRSEDEADYYCAAWDDSLNGYVFGTGTKLTVLGQP
For orientation: IC50 means the midpoint of a concentration-inhibition curve. For the molecule B1, the IC50 was > 10000 nM with huKv1.3, 1540 nM in the experiment with human Kv1.3 (huKv1.3) (setting [2]), 430 nM with human Kv1.3 (huKv1.3) (setting [3]) and 4800 nM with human Kv1.1 (huKv1.1) (setting [4]). Further, the Fold difference in the experiment with human Kv1.3 (huKv1.3) (setting [1]) amounted to 3.

B2: KB_A12_Odk2: OdK2 in VL CDR2 of KB_A12, IgG (antibody, V domains shown)
VH: EVQLVESGGGLVRPGGSLRLSCAASGFTFSSYAMSWVRQAPGKGLEWVSAISGSGGSTYYADSVKGRFTISRDNTKNSLYLQMTSLRADDTAFYYCVKDFGPGYGTGWFDYWGPGTLVTVSS
VL: QSVLTQPPSVSEAPRQRVTITCSGSSSNIGNNAVNWYQQLPGKAPKLLIYAAGRGVPTDVKCRGSPQCIQPCKDAGMRFGKCMNGKCHCTPKANSGVSDRFSAAKSGTSASLAINGLRSEDEADYYCAAWDDSLNGYVFGTGTKLTVLG
In the experiment with human Kv1.3 (huKv1.3) (setting [1]), B2 registered a Fold difference of 6. In addition, the values for the IC50 with human Kv1.3 (huKv1.3) (setting [2]), in the experiment with human Kv1.3 (huKv1.3) (setting [3]) and in the experiment with human Kv1.1 (huKv1.1) (setting [4]) were 457 nM, 222 nM and 2750 nM, respectively.

B3: KB_A12_AnTx 2 M: AnTx N17A/F32T in VL CDR2 of KB_A12, IgG (antibody, V domains shown)
VH: EVQLVESGGGLVRPGGSLRLSCAASGFTFSSYAMSWVRQAPGKGLEWVSAISGSGGSTYYADSVKGRFTISRDNTKNSLYLQMTSLRADDTAFYYCVKDFGPGYGTGWFDYWGPGTLVTVSS
VL: QSVLTQPPSVSEAPRQRVTITCSGSSSNIGNNAVNWYQQLPGKAPKLLIYAAGRQKECTGPQHCTNFCRKAKCTHGKCMNRKCKCTNCKANSGVSDRFSAAKSGTSASLAINGLRSEDEADYYCAAWDDSLNGYVFGTGTKLTVLG
In the experiment with human Kv1.3 (huKv1.3) (setting [1]), B3 gave a Fold difference of 94. Further, the results for the IC50 with human Kv1.3 (huKv1.3) (setting [2]), with human Kv1.3 (huKv1.3) (setting [3]) and with human Kv1.1 (huKv1.1) (setting [4]) were 110 nM, 85 nM and 10300 nM, respectively.

B4: KB_A12_HsTx1 R14A (antibody, V domains shown)
VH: EVQLVESGGGLVRPGGSLRLSCAASGFTFSSYAMSWVRQAPGKGLEWVSAISGSGGSTYYADSVKGRFTISRDNTKNSLYLQMTSLRADDTAFYYCVKDFGPGYGTGWFDYWGPGTLVTVSS
VL: QSVLTQPPSVSEAPRQRVTITCSGSSSNIGNNAVNWYQQLPGKAPKLLIYAAGRASCRTPKDCADPCAKETGCPYGKCMNRKCKCNRCANSGVSDRFSAAKSGTSASLAINGLRSEDEADYYCAAWDDSLNGYVFGTGTKLTVLG
On to B4, for which, in the experiment with human Kv1.3 (huKv1.3) (Kv1.1 IC50 over Kv1.3 IC50, Table E21), the Fold difference is on record as >3500. Further, the half-inhibitory concentration (IC50) with human Kv1.3 (huKv1.3) (Table E21, read-out: Kvl.3 IC50) was 0.9 nM; with human Kv1.1 (huKv1.1) (Table E21) it was 2990 nM.

The values are drawn from patent US20230331827A1, “POTASSIUM CHANNEL INHIBITORS” (priority 2017, published 2023).
